Assay results: US20180155451A1 (published 2018)

T1: FcγRIIb extracellular domain with C-terminal His tag (human, UniProt P31994 43-217)
T1 construct: extracellular domain; Soluble receptor expressed in FreeStyle293 cells and used as analyte in Biacore; also called FcgRIIb; 2b; not shown: His tag at the C terminus
T1 sequence (looked up): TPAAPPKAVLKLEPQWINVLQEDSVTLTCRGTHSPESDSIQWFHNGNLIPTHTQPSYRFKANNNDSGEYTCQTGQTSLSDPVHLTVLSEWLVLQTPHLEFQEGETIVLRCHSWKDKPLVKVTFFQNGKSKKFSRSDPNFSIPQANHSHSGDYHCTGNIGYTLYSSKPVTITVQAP

T2: FcγRIIa H (human, UniProt P12318 34-217)
T2 construct: extracellular domain; Soluble His-tagged extracellular domain expressed in FreeStyle293 cells; also called FcγRIIa type H; FcgRIIa H; not shown: His tag attached to the C terminus
T2 sequence (looked up): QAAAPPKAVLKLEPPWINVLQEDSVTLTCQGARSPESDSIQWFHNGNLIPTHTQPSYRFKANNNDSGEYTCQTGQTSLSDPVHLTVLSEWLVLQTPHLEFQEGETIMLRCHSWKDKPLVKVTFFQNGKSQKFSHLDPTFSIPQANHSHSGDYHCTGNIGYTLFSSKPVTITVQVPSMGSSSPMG

T3: FcγRIIb (human, UniProt P31994 43-217)
T3 construct: extracellular domain; Soluble His-tagged extracellular domain expressed in FreeStyle293 cells; also called FcgRIIb; 2b; not shown: His tag attached to the C terminus
T3 sequence (looked up): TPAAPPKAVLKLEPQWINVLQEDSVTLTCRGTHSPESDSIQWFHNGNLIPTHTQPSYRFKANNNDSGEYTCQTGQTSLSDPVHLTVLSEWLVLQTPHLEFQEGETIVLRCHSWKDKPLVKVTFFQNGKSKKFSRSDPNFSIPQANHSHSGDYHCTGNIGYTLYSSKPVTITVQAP


Tests used:
[1] = biological target: T4, FcγRIa extracellular domain with C-terminal His tag (human, UniProt P12314 16-292); assay: SPR Biacore, relative binding amount
T4 construct: extracellular domain; Soluble receptor expressed in FreeStyle293 cells and used as analyte in Biacore; also called FcgRI; 1a; not shown: His tag at the C terminus

[2] = biological target: T1, FcγRIIb extracellular domain with …; assay: SPR Biacore, relative binding amount
[3] = biological target: T4, FcγRIa extracellular domain with …; assay: SPR Biacore; relative binding to FcγRIa divided by that to FcγRIIb
[4] = biological target: T2, FcγRIIa H; assay: SPR (Biacore); He/Con_2aH divided by He/Con_2b (FcγRIIb) of the same antibody
[5] = biological target: T2, FcγRIIa H; assay: SPR (Biacore), captured antibody, FcγR analyte; relative to GpH7-A5/GpH7-B3/GpL16-k0 = 100
Procedure: (§1) The heterodimerized antibodies He Abs in which one of the H chains was introduced with an alteration were assayed for their binding activities to each activating FcγR and inhibitory FcγR according to the method described in Example 4. […] The activating FcγRs in FIGS. 26, 27, 28, and 29 are FcγRIa, FcγRIIa (R), FcγRIIa (H), and FcγRIIIa, respectively.
(§2) Analysis of interaction between objective antibody and the FcγR was carried out using Biacore T100 (GE Healthcare). HBS-EP+ (GE Healthcare) was used as the running buffer, and the measurement temperature was set to 25° C. Chips produced by immobilizing the antigen peptide by the amine coupling method to a Series S Sencor Chip CM5 (GE Healthcare), or alternatively, chips produced by allowing preliminarily biotinylated antigen peptides to interact with and immobilize onto a Series S Sensor Chip SA (certified) (GE Healthcare) were used. Antibodies of interest were captured onto an antigen peptide-immobilized chip, and allowed to interact to each FcγR diluted with running buffer. To regenerate and repeatedly use the chip, the antibodies captured on the chip were washed off by reacting 10 mM glycine-HCl, pH 1.5.

[6] = biological target: T3, FcγRIIb; assay: as above
Procedure: as §1, §2

T4 sequence (P12314 16-292): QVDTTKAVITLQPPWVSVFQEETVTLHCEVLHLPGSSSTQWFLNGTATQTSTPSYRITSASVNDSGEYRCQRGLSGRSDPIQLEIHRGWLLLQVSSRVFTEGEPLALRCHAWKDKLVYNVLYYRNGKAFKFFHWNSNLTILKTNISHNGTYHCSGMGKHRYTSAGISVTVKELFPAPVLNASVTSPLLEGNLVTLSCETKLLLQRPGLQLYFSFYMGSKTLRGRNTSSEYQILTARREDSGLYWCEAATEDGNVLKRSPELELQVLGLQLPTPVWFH

He/Con_1a [1] | He/Con_2b [2] | Ia/IIb He_1a/2b [3] | He_2aH/2b [4] [ratio] | He/Con_2aH [5] | He/Con_2b [6] | Binder
107 % of GpH7-A5/GpH7-B3/GpL16-k0 (=100) | 70.6 % of GpH7-A5/GpH7-B3/GpL16-k0 (=100) | 1.52 ratio of He/Con_1a to He/Con_2b |  |  |  | heterodimerized antibody GpH7-A5/GpH7-B3 variant S298_07I/GpL16-k0 (antibody, human IgG1, kappa, Substitution in only one H chain (GpH7-B3 side); also called He Ab) heavy 1: not shown heavy 2: not shown light: DIVMTQSPLSLPVTPGEPASISCQASESLVHSNRNTYLHWYLQKPGQSPQLLIYKVSNRFSGVPDRFSGSGSGTDFTLKISRVEAEDVGVYYCSQNTHVPPTFGQGTKVEIERTVAAPSVFIFPPSDEQLKSGTASVVCLLNNFYPREAKVQWKVDNALQSGNSQESVTEQDSKDSTYSLSSTLTLSKADYEKHKVYACEVTHQGLSSPVTKSFNRGEC
 |  |  | 0.26 | 52 relative (control = 100) | 197 relative (control = 100) | GpH7-A5/GpH7-B3 variant N325_08L/GpL16-k0 (antibody, human IgG1, kappa, Heterodimerized anti-glypican-3 IgG1; mutation in the GpH7-B3 H chain only; also called He Ab) heavy 1: not shown heavy 2: not shown light: DIVMTQSPLSLPVTPGEPASISCQASESLVHSNRNTYLHWYLQKPGQSPQLLIYKVSNRFSGVPDRFSGSGSGTDFTLKISRVEAEDVGVYYCSQNTHVPPTFGQGTKVEIERTVAAPSVFIFPPSDEQLKSGTASVVCLLNNFYPREAKVQWKVDNALQSGNSQESVTEQDSKDSTYSLSSTLTLSKADYEKHKVYACEVTHQGLSSPVTKSFNRGEC
93.7 % of GpH7-A5/GpH7-B3/GpL16-k0 (=100) | 44.4 % of GpH7-A5/GpH7-B3/GpL16-k0 (=100) | 2.11 ratio of He/Con_1a to He/Con_2b |  |  |  | heterodimerized antibody GpH7-A5/GpH7-B3 variant Q295_20W/GpL16-k0 (antibody, human IgG1, kappa, Substitution in only one H chain (GpH7-B3 side); also called He Ab) heavy 1: not shown heavy 2: not shown light: DIVMTQSPLSLPVTPGEPASISCQASESLVHSNRNTYLHWYLQKPGQSPQLLIYKVSNRFSGVPDRFSGSGSGTDFTLKISRVEAEDVGVYYCSQNTHVPPTFGQGTKVEIERTVAAPSVFIFPPSDEQLKSGTASVVCLLNNFYPREAKVQWKVDNALQSGNSQESVTEQDSKDSTYSLSSTLTLSKADYEKHKVYACEVTHQGLSSPVTKSFNRGEC
104 % of GpH7-A5/GpH7-B3/GpL16-k0 (=100) | 80.1 % of GpH7-A5/GpH7-B3/GpL16-k0 (=100) | 1.29 ratio of He/Con_1a to He/Con_2b |  |  |  | heterodimerized antibody GpH7-A5/GpH7-B3 variant S298_01G/GpL16-k0 (antibody, human IgG1, kappa, Substitution in only one H chain (GpH7-B3 side); also called He Ab) heavy 1: not shown heavy 2: not shown light: DIVMTQSPLSLPVTPGEPASISCQASESLVHSNRNTYLHWYLQKPGQSPQLLIYKVSNRFSGVPDRFSGSGSGTDFTLKISRVEAEDVGVYYCSQNTHVPPTFGQGTKVEIERTVAAPSVFIFPPSDEQLKSGTASVVCLLNNFYPREAKVQWKVDNALQSGNSQESVTEQDSKDSTYSLSSTLTLSKADYEKHKVYACEVTHQGLSSPVTKSFNRGEC
102 % of GpH7-A5/GpH7-B3/GpL16-k0 (=100) | 64.9 % of GpH7-A5/GpH7-B3/GpL16-k0 (=100) | 1.58 ratio of He/Con_1a to He/Con_2b |  |  |  | heterodimerized antibody GpH7-A5/GpH7-B3 variant Q295_18N/GpL16-k0 (antibody, human IgG1, kappa, Substitution in only one H chain (GpH7-B3 side); also called He Ab) heavy 1: not shown heavy 2: not shown light: DIVMTQSPLSLPVTPGEPASISCQASESLVHSNRNTYLHWYLQKPGQSPQLLIYKVSNRFSGVPDRFSGSGSGTDFTLKISRVEAEDVGVYYCSQNTHVPPTFGQGTKVEIERTVAAPSVFIFPPSDEQLKSGTASVVCLLNNFYPREAKVQWKVDNALQSGNSQESVTEQDSKDSTYSLSSTLTLSKADYEKHKVYACEVTHQGLSSPVTKSFNRGEC
110 % of GpH7-A5/GpH7-B3/GpL16-k0 (=100) | 64.5 % of GpH7-A5/GpH7-B3/GpL16-k0 (=100) | 1.7 ratio of He/Con_1a to He/Con_2b |  |  |  | heterodimerized antibody GpH7-A5/GpH7-B3 variant S298_03V/GpL16-k0 (antibody, human IgG1, kappa, Substitution in only one H chain (GpH7-B3 side); also called He Ab) heavy 1: not shown heavy 2: not shown light: DIVMTQSPLSLPVTPGEPASISCQASESLVHSNRNTYLHWYLQKPGQSPQLLIYKVSNRFSGVPDRFSGSGSGTDFTLKISRVEAEDVGVYYCSQNTHVPPTFGQGTKVEIERTVAAPSVFIFPPSDEQLKSGTASVVCLLNNFYPREAKVQWKVDNALQSGNSQESVTEQDSKDSTYSLSSTLTLSKADYEKHKVYACEVTHQGLSSPVTKSFNRGEC
 |  |  | 0.55 | 52.5 relative (control = 100) | 95.9 relative (control = 100) | GpH7-A5/GpH7-B3 variant N325_10E/GpL16-k0 (antibody, human IgG1, kappa, Heterodimerized anti-glypican-3 IgG1; mutation in the GpH7-B3 H chain only; also called He Ab) heavy 1: not shown heavy 2: not shown light: DIVMTQSPLSLPVTPGEPASISCQASESLVHSNRNTYLHWYLQKPGQSPQLLIYKVSNRFSGVPDRFSGSGSGTDFTLKISRVEAEDVGVYYCSQNTHVPPTFGQGTKVEIERTVAAPSVFIFPPSDEQLKSGTASVVCLLNNFYPREAKVQWKVDNALQSGNSQESVTEQDSKDSTYSLSSTLTLSKADYEKHKVYACEVTHQGLSSPVTKSFNRGEC
